One assay relates to FGFR1 kinase domain. In words: LC-MS assay of intact SHP2 protein phosphorylation. Type of assay: biochemical, human. To be noted: SHP2 10 μM, kinase 1 μM, 1 hr, 37 °C, 2 to 3 measurements. How it is done:
(§1) The same protocol used to express and purify SH2 domains, excluding co-expression of BirA and addition of biotin, was applied to the expression and purification of the SHP2 variants.
(§2) To pre-activate the kinases, 1 μM of each purified kinase domain was preincubated at 37 °C for 30 min in the same buffer conditions used in the kinase domain peptide display screen, with 1 mM ATP. The reaction of the kinase with SHP2 was initiated with the addition of 10 μM SHP2, and the mixture was incubated in 37 °C for 1 hr. To terminate the reaction, the mixture was quenched with 200 mM EDTA. The reaction mixture was diluted 3:2 in water and injected onto a BEH C8 column (Waters) on a UPLC-MS system (Xevo QToF, Waters). Reverse-phase liquid chromatography was carried out at 0.3 mL/min with solvents A (H2O, 0.1% (v/v) formic acid) and B (acetonitrile, 0.1% (v/v) formic acid). Proteins were eluted over a gradient of 5–95% B for 8.5 min. The protein peak on the chromatogram was deconvoluted using the MaxEnt1 algorithm from 32,000–65,000 Da with a resolution of 1 Da/channel over 30 iterations. Peaks were chosen according to the theoretical MW of the protein within a range of 5 Da, and integrated for the signal intensity.

A further assay deals with Fyn kinase domain. In words: LC-MS assay of intact SHP2 protein phosphorylation. Type of assay: biochemical, human. To be noted: SHP2 10 μM, kinase 1 μM, 1 hr, 37 °C, 2 to 3 measurements. The method, then:
as §1, §2

B1: SHP2 D61V: human full-length SHP2 (residues 1–526; C459E, D61V) (protein, UniProt Q06124 2-593, looked up, variant C459E D61V)
Tyrosine-protein phosphatase …: TSRRWFHPNITGVEAENLLLTRGVDGSFLARPSKSNPGDFTLSVRRNGAVTHIKIQNTGVYYDLYGGEKFATLAELVQYYMEHHGQLKEKNGDVIELKYPLNCADPTSERWFHGHLSGKEAEKLLTEKGKHGSFLVRESQSHPGDFVLSVRTGDDKGESNDGKSKVTHVMIRCQELKYDVGGGERFDSLTDLVEHYKKNPMVETLGTVLQLKQPLNTTRINAAEIESRVRELSKLAETTDKVKQGFWEEFETLQQQECKLLYSRKEGQRQENKNKNRYKNILPFDHTRVVLHDGDPNEPVSDYINANIIMPEFETKCNNSKPKKSYIATQGCLQNTVNDFWRMVFQENSRVIVMTTKEVERGKSKCVKYWPDEYALKEYGVMRVRNVKESAAHDYTLRELKLSKVGQGNTERTVWQYHFRTWPDHGVPSDPGGVLDFLEEVHHKQESIMDAGPVVVHESAGIGRTGTFIVIDILIDIIREKGVDCDIDVPKTIQMVRSQRSGMVQTEAQYRFIYMAVQHYIETLQRRIEEEQKSKRKGHEYTNIKYSLADQTSGDQSPLPPCTPTPPCAEMREDSARVYENVGLMQQQKSFR
With B1, the “phosphorylation of intact SHP2 by FGFR1” value in the assay with FGFR1 kinase domain is “dramatically enhanced phosphorylation”. For the same molecule, the “phosphorylation of intact SHP2 by Fyn” value with Fyn kinase domain is listed as “dramatically enhanced phosphorylation”.
